The target of test [1] is T1, recombinant human soluble gpNMB (recombinant human gpNMB-FLAG-His) (human, UniProt Q14956 23-498).
T1 sequence: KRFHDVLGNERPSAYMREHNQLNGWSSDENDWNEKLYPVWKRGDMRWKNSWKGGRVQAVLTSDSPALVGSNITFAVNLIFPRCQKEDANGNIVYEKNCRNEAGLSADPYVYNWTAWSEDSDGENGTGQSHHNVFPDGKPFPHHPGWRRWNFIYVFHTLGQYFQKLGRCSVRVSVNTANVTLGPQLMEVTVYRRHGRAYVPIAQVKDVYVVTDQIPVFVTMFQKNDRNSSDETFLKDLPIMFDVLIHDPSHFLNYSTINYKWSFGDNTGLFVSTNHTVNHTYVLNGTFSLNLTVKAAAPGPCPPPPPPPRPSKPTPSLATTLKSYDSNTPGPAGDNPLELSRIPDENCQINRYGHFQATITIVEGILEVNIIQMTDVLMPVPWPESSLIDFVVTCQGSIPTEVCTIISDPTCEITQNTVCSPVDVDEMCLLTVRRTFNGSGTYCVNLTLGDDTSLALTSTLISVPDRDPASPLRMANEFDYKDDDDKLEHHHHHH
Briefly: antigen ELISA, vs hGPN18-2_H2L3.

Test [2] deals with T1, recombinant human soluble gpNMB …. Briefly: antigen ELISA. A general note: ELISA stands for enzyme-linked immunosorbent assay.

The values below come from patent publication EP4772193A1 (Teijin Pharma Limited, dated 2026).

Usually EC50 stands for the concentration that produces a half-maximal response.

B1: hGPN18-2_H2L3 VH K66A (antibody, V domains shown)
VH: QVQLVQSGPGLVQPTQTLTLTCSFSGFSLSTSVMGVGWIRQPSGKGLEWLADIWWDDDKDYNPSLASRLTISKDTSKNQVVLTMTNMDTVDTATYYCARTYYSNYEYYGMDYWGQGTLVTVSS
VL: DIVMTQSPDSLAVSLGERATINCRSSQTIILSNGNTYLEWYQQKPGQPPKLLIYKVSNRFSGVPDRFSGSGSGTDFTLTISSLQAEDVAVYYCFQGSHVPFTFGSGTKLEIKR
Turning to B1, the Relative binding activity in test [1] was 0.96. Also, in test [2], the EC50 amounted to 4.96 nM.

B2: hGPN18-2_H2L3 VH S67A (antibody, V domains shown)
VH: QVQLVQSGPGLVQPTQTLTLTCSFSGFSLSTSVMGVGWIRQPSGKGLEWLADIWWDDDKDYNPSLKARLTISKDTSKNQVVLTMTNMDTVDTATYYCARTYYSNYEYYGMDYWGQGTLVTVSS
VL: DIVMTQSPDSLAVSLGERATINCRSSQTIILSNGNTYLEWYQQKPGQPPKLLIYKVSNRFSGVPDRFSGSGSGTDFTLTISSLQAEDVAVYYCFQGSHVPFTFGSGTKLEIKR
On to B2, for which the Relative binding activity in test [1] was 1.01. Besides, in test [2], the EC50 was 4.25 nM.

B3: hGPN18-2_H2L3 VH Y102A (antibody, V domains shown)
VH: QVQLVQSGPGLVQPTQTLTLTCSFSGFSLSTSVMGVGWIRQPSGKGLEWLADIWWDDDKDYNPSLKSRLTISKDTSKNQVVLTMTNMDTVDTATYYCARTYASNYEYYGMDYWGQGTLVTVSS
VL: DIVMTQSPDSLAVSLGERATINCRSSQTIILSNGNTYLEWYQQKPGQPPKLLIYKVSNRFSGVPDRFSGSGSGTDFTLTISSLQAEDVAVYYCFQGSHVPFTFGSGTKLEIKR
Turning to B3, the Relative binding activity in test [1] amounted to 0.07. The EC50 in test [2] came out at 49.1 nM.

B4: hGPN18-2_H2L3 VH N62A (antibody, V domains shown)
VH: QVQLVQSGPGLVQPTQTLTLTCSFSGFSLSTSVMGVGWIRQPSGKGLEWLADIWWDDDKDYAPSLKSRLTISKDTSKNQVVLTMTNMDTVDTATYYCARTYYSNYEYYGMDYWGQGTLVTVSS
VL: DIVMTQSPDSLAVSLGERATINCRSSQTIILSNGNTYLEWYQQKPGQPPKLLIYKVSNRFSGVPDRFSGSGSGTDFTLTISSLQAEDVAVYYCFQGSHVPFTFGSGTKLEIKR
For the molecule B4, the Relative binding activity in test [1] came to 0.97. Further, the EC50 in test [2] turned out to be 4.58 nM.

B5: hGPN18-2_H2L3 VH Y108A (antibody, V domains shown)
VH: QVQLVQSGPGLVQPTQTLTLTCSFSGFSLSTSVMGVGWIRQPSGKGLEWLADIWWDDDKDYNPSLKSRLTISKDTSKNQVVLTMTNMDTVDTATYYCARTYYSNYEYAGMDYWGQGTLVTVSS
VL: DIVMTQSPDSLAVSLGERATINCRSSQTIILSNGNTYLEWYQQKPGQPPKLLIYKVSNRFSGVPDRFSGSGSGTDFTLTISSLQAEDVAVYYCFQGSHVPFTFGSGTKLEIKR
As to B5, the Relative binding activity in test [1] was found to be 0.91. Further, the EC50 in test [2] came out at 4.7 nM.

B6: hGPN18-2_H2L3 VH S103A (antibody, V domains shown)
VH: QVQLVQSGPGLVQPTQTLTLTCSFSGFSLSTSVMGVGWIRQPSGKGLEWLADIWWDDDKDYNPSLKSRLTISKDTSKNQVVLTMTNMDTVDTATYYCARTYYANYEYYGMDYWGQGTLVTVSS
VL: DIVMTQSPDSLAVSLGERATINCRSSQTIILSNGNTYLEWYQQKPGQPPKLLIYKVSNRFSGVPDRFSGSGSGTDFTLTISSLQAEDVAVYYCFQGSHVPFTFGSGTKLEIKR
In the case of B6, the Relative binding activity in test [1] was found to be 0.94. The EC50 in test [2] worked out at 4.04 nM.

B7: hGPN18-2_H2L3 VH L65A (antibody, V domains shown)
VH: QVQLVQSGPGLVQPTQTLTLTCSFSGFSLSTSVMGVGWIRQPSGKGLEWLADIWWDDDKDYNPSAKSRLTISKDTSKNQVVLTMTNMDTVDTATYYCARTYYSNYEYYGMDYWGQGTLVTVSS
VL: DIVMTQSPDSLAVSLGERATINCRSSQTIILSNGNTYLEWYQQKPGQPPKLLIYKVSNRFSGVPDRFSGSGSGTDFTLTISSLQAEDVAVYYCFQGSHVPFTFGSGTKLEIKR
Take B7: in test [1], the Relative binding activity was determined as 0.94. Moreover, the EC50 in test [2] turned out to be 5.04 nM.

B8: hGPN18-2_H2L3 VH Y105A (antibody, V domains shown)
VH: QVQLVQSGPGLVQPTQTLTLTCSFSGFSLSTSVMGVGWIRQPSGKGLEWLADIWWDDDKDYNPSLKSRLTISKDTSKNQVVLTMTNMDTVDTATYYCARTYYSNAEYYGMDYWGQGTLVTVSS
VL: DIVMTQSPDSLAVSLGERATINCRSSQTIILSNGNTYLEWYQQKPGQPPKLLIYKVSNRFSGVPDRFSGSGSGTDFTLTISSLQAEDVAVYYCFQGSHVPFTFGSGTKLEIKR
With B8, the Relative binding activity in test [1] came to 0.47. Moreover, in test [2], the EC50 turned out to be 15.6 nM.

B9: hGPN18-2_H2L3 VH T100A (antibody, V domains shown)
VH: QVQLVQSGPGLVQPTQTLTLTCSFSGFSLSTSVMGVGWIRQPSGKGLEWLADIWWDDDKDYNPSLKSRLTISKDTSKNQVVLTMTNMDTVDTATYYCARAYYSNYEYYGMDYWGQGTLVTVSS
VL: DIVMTQSPDSLAVSLGERATINCRSSQTIILSNGNTYLEWYQQKPGQPPKLLIYKVSNRFSGVPDRFSGSGSGTDFTLTISSLQAEDVAVYYCFQGSHVPFTFGSGTKLEIKR
Take B9: the Relative binding activity in test [1] was 0.47. The EC50 in test [2] was 8.44 nM.

B10: hGPN18-2_H2L3 VH Y101A (antibody, V domains shown)
VH: QVQLVQSGPGLVQPTQTLTLTCSFSGFSLSTSVMGVGWIRQPSGKGLEWLADIWWDDDKDYNPSLKSRLTISKDTSKNQVVLTMTNMDTVDTATYYCARTAYSNYEYYGMDYWGQGTLVTVSS
VL: DIVMTQSPDSLAVSLGERATINCRSSQTIILSNGNTYLEWYQQKPGQPPKLLIYKVSNRFSGVPDRFSGSGSGTDFTLTISSLQAEDVAVYYCFQGSHVPFTFGSGTKLEIKR
As to B10, the Relative binding activity in test [1] turned out to be 0.61. Also, in test [2], the EC50 was 7.68 nM.

B11: hGPN18-2_H2L3 VH P63A (antibody, V domains shown)
VH: QVQLVQSGPGLVQPTQTLTLTCSFSGFSLSTSVMGVGWIRQPSGKGLEWLADIWWDDDKDYNASLKSRLTISKDTSKNQVVLTMTNMDTVDTATYYCARTYYSNYEYYGMDYWGQGTLVTVSS
VL: DIVMTQSPDSLAVSLGERATINCRSSQTIILSNGNTYLEWYQQKPGQPPKLLIYKVSNRFSGVPDRFSGSGSGTDFTLTISSLQAEDVAVYYCFQGSHVPFTFGSGTKLEIKR
For B11, the Relative binding activity in test [1] was determined as 0.43. Further, the EC50 in test [2] is 12 nM.

B12: hGPN18-2_H2L3 VH M110A (antibody, V domains shown)
VH: QVQLVQSGPGLVQPTQTLTLTCSFSGFSLSTSVMGVGWIRQPSGKGLEWLADIWWDDDKDYNPSLKSRLTISKDTSKNQVVLTMTNMDTVDTATYYCARTYYSNYEYYGADYWGQGTLVTVSS
VL: DIVMTQSPDSLAVSLGERATINCRSSQTIILSNGNTYLEWYQQKPGQPPKLLIYKVSNRFSGVPDRFSGSGSGTDFTLTISSLQAEDVAVYYCFQGSHVPFTFGSGTKLEIKR
Consider B12, for which the Relative binding activity in test [1] was 0.41. The EC50 in test [2] came to 23.4 nM.

B13: hGPN18-2_H2L3 VH S64A (antibody, V domains shown)
VH: QVQLVQSGPGLVQPTQTLTLTCSFSGFSLSTSVMGVGWIRQPSGKGLEWLADIWWDDDKDYNPALKSRLTISKDTSKNQVVLTMTNMDTVDTATYYCARTYYSNYEYYGMDYWGQGTLVTVSS
VL: DIVMTQSPDSLAVSLGERATINCRSSQTIILSNGNTYLEWYQQKPGQPPKLLIYKVSNRFSGVPDRFSGSGSGTDFTLTISSLQAEDVAVYYCFQGSHVPFTFGSGTKLEIKR
As to B13, in test [1], the Relative binding activity was 1.09. For the same molecule, the EC50 in test [2] amounted to 3.59 nM.

B14: hGPN18-2_H2L3 VH Y61A (antibody, V domains shown)
VH: QVQLVQSGPGLVQPTQTLTLTCSFSGFSLSTSVMGVGWIRQPSGKGLEWLADIWWDDDKDANPSLKSRLTISKDTSKNQVVLTMTNMDTVDTATYYCARTYYSNYEYYGMDYWGQGTLVTVSS
VL: DIVMTQSPDSLAVSLGERATINCRSSQTIILSNGNTYLEWYQQKPGQPPKLLIYKVSNRFSGVPDRFSGSGSGTDFTLTISSLQAEDVAVYYCFQGSHVPFTFGSGTKLEIKR
As for B14, in test [1], the Relative binding activity was 0.7. Further, the EC50 in test [2] is 7.55 nM.

B15: hGPN18-2_H2L3 VH Y107A (antibody, V domains shown)
VH: QVQLVQSGPGLVQPTQTLTLTCSFSGFSLSTSVMGVGWIRQPSGKGLEWLADIWWDDDKDYNPSLKSRLTISKDTSKNQVVLTMTNMDTVDTATYYCARTYYSNYEAYGMDYWGQGTLVTVSS
VL: DIVMTQSPDSLAVSLGERATINCRSSQTIILSNGNTYLEWYQQKPGQPPKLLIYKVSNRFSGVPDRFSGSGSGTDFTLTISSLQAEDVAVYYCFQGSHVPFTFGSGTKLEIKR
Turning to B15, the Relative binding activity in test [1] is 0.06. In addition, in test [2], the EC50 was 60.9 nM.

B16: hGPN18-2_H2L3 VH R99A (antibody, V domains shown)
VH: QVQLVQSGPGLVQPTQTLTLTCSFSGFSLSTSVMGVGWIRQPSGKGLEWLADIWWDDDKDYNPSLKSRLTISKDTSKNQVVLTMTNMDTVDTATYYCAATYYSNYEYYGMDYWGQGTLVTVSS
VL: DIVMTQSPDSLAVSLGERATINCRSSQTIILSNGNTYLEWYQQKPGQPPKLLIYKVSNRFSGVPDRFSGSGSGTDFTLTISSLQAEDVAVYYCFQGSHVPFTFGSGTKLEIKR
B16: the Relative binding activity in test [1] turned out to be 0.37. Also, the EC50 in test [2] turned out to be 10.6 nM.

B17: hGPN18-2_H2L3 VH N104A (antibody, V domains shown)
VH: QVQLVQSGPGLVQPTQTLTLTCSFSGFSLSTSVMGVGWIRQPSGKGLEWLADIWWDDDKDYNPSLKSRLTISKDTSKNQVVLTMTNMDTVDTATYYCARTYYSAYEYYGMDYWGQGTLVTVSS
VL: DIVMTQSPDSLAVSLGERATINCRSSQTIILSNGNTYLEWYQQKPGQPPKLLIYKVSNRFSGVPDRFSGSGSGTDFTLTISSLQAEDVAVYYCFQGSHVPFTFGSGTKLEIKR
On to B17, for which, in test [1], the Relative binding activity was found to be 0.8. For the same molecule, the EC50 in test [2] came out at 5.62 nM.
